Kd, T1/2 and Percent Blocking of Ang-2FD Binding to Tie-2 data for twelve molecules are collected here from US20130129722A1.

Assay [1] addresses Dimeric Mouse Ang-2FD conjugated to human IgG1 (mouse (Mus musculus)). As to the kind of experiment: SPR, human IgG1 antibody captured.
For assay [2], the target named is Dimeric Monkey Ang-2FD conjugated to human IgG1 (monkey (Macca fascicularis)). As to the kind of experiment: SPR, human IgG1 antibody captured. (SPR reads the build-up and loss of mass on a sensor chip optically.)
Sequence of Dimeric Monkey Ang-2FD conjugated to human IgG1 (monkey (Macca fascicularis)) (chain, as listed by the source limits assumed): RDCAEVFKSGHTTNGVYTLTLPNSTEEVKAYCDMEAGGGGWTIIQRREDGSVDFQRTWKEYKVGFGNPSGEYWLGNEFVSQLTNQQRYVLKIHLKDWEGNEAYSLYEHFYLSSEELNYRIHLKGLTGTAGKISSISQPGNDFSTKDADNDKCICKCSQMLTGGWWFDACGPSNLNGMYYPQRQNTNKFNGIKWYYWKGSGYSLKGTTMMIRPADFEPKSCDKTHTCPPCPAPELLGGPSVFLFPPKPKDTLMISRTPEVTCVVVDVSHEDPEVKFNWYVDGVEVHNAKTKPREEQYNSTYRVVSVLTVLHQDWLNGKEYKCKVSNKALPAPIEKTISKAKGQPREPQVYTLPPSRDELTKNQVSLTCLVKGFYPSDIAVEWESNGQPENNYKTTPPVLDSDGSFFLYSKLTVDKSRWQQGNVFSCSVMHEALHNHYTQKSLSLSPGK
The target of assay [3] is Dimeric Human Ang-2FD conjugated to human IgG1 (human). As to the kind of experiment: SPR, human IgG1 antibody captured.
Sequence of Dimeric Human Ang-2FD conjugated to human IgG1 (human) (chain, as listed by the source limits assumed): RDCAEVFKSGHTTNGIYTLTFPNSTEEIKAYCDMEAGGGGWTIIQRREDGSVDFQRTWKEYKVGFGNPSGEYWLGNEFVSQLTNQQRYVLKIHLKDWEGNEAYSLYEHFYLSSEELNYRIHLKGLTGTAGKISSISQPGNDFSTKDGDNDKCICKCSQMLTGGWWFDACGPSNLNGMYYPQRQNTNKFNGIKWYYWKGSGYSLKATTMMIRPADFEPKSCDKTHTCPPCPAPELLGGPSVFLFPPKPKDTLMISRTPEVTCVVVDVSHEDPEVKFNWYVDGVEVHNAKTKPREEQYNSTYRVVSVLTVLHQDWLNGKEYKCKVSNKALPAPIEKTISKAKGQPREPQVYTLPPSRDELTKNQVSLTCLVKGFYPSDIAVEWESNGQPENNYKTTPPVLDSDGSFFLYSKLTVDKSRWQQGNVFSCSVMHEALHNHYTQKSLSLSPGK
In assay [4] the target is Dimeric Mouse Ang-2FD conjugated to human IgG1 (mouse (Mus musculus)). As to the kind of experiment: SPR, antibody captured, room temperature.
Sequence of Dimeric Mouse Ang-2FD conjugated to human IgG1 (mouse (Mus musculus)) (chain, as listed by the source limits assumed): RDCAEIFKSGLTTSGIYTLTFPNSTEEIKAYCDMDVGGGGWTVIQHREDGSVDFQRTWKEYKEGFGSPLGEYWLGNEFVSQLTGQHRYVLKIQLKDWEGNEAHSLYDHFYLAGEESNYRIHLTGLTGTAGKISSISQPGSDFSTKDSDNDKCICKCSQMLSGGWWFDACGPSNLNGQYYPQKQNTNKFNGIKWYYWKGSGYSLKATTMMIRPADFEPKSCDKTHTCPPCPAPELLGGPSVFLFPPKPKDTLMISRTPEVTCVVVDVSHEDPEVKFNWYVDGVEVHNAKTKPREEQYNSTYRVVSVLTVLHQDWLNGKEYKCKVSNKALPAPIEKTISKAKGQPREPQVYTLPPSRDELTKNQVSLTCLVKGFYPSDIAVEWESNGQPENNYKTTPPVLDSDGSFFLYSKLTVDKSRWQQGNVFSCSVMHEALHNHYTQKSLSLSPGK
Assay [5] deals with Dimeric Monkey Ang-2FD conjugated to human IgG1 (monkey (Macca fascicularis)). As to the kind of experiment: SPR, antibody captured, room temperature.
Assay [6] addresses Dimeric Human Ang-2FD conjugated to human IgG1 (human). Briefly: SPR, antibody captured, room temperature.
The target in assay [7] is Dimeric Mouse Ang-2FD conjugated to human IgG1 (mouse (Mus musculus)). Briefly: ELISA, 16.67 nM antibody, Ang-2FD-hFc binding to coated hTie-2-mFc. For orientation: An ELISA detects its analyte on a solid surface through an enzyme-linked reagent.
Assay [8] deals with Dimeric Monkey Ang-2FD conjugated to human IgG1 (monkey (Macca fascicularis)). Described as above.
Assay [9] concerns the target Dimeric Human Ang-2FD conjugated to human IgG1 (human). The description is as above.

B1: H1H743N (antibody, V domains shown)
VH: EVQLLESGGGLVQPGGSLRLSCAASGFTFRKYAMSWVRQAPGKGLEWVSVISVSGGNTYYADSVKGRFTISRDNSKNTLYLQLNSLRAEDTAVYYCAKDLTDIVLMVYVDYWGQGTLVTVSS
VL: DIQMTQSPSSVSASVGDRVTITCRASQDIDRWLAWYQQKPGKAPKLLIYAASSLQSGVPSRFSGSGSGTDFTLTISTLQPEDFATYYCQQANSLPFTFGGGTKVEIK
For the molecule B1, the figures for the Kd in assay [1], in assay [2] and in [3] were 0.124 nM, 0.0965 nM and 0.0882 nM, respectively. The T1/2 is 233 min in assay [1], 780 min in [2] and 254 min in [3].

B2: H1H742N (antibody, V domains shown)
VH: DVQLLESGGDLVQPGGSLRLSCEASGFTFRNYVMIWVRQAPGKGLEWVSGISNSGGTTHYTDSVKGRFTISRDNSKNTLYLQINSLRAEDTAVYYCAKGYLDTSLIEGNWFDPWGQGTLVTVSS
VL: NIVMTQSPLSLPVTPGEPASISCRSSQSLLHSNGFNYLNWFLQKPGQSPQLLIYLGSNRASGVPDKFSGSGSGTDFTLNINRVEAEDVGIYFCMQTLQTPLTFGGGTKVEIK
Consider B2, for which the Kd (usually the constant that tells how readily two partners part at equilibrium) in [1] was 0.276 nM; in [2], 0.683 nM; in assay [3], 0.186 nM. In addition, the T1/2 in assay [1] stood at 58 min; in assay [2] it was 93 min; in [3] it was 65 min.

B3: H2M742N (antibody, V domains shown)
VH: DVQLLESGGDLVQPGGSLRLSCEASGFTFRNYVMIWVRQAPGKGLEWVSGISNSGGTTHYTDSVKGRFTISRDNSKNTLYLQINSLRAEDTAVYYCAKGYLDTSLIEGNWFDPWGQGTLVTVSS
VL: NIVMTQSPLSLPVTPGEPASISCRSSQSLLHSNGFNYLNWFLQKPGQSPQLLIYLGSNRASGVPDKFSGSGSGTDFTLNINRVEAEDVGIYFCMQTLQTPLTFGGGTKVEIK
Take B3: the results for the dissociation constant (Kd) in [4], in [5] and in assay [6] were 0.61 nM, 6.17 nM and 0.295 nM, respectively. In addition, the T1/2 in assay [4] was determined as 30.8 min; in [5], 28.5 min; in assay [6], 38 min. Also, the Percent Blocking of Ang-2FD Binding to Tie-2 in [7] was determined as 98.6%; in [8], 94.1%; in [9] it was 99.6%.

B4: H1M728N (antibody, V domains shown)
VH: EVQLVESGGDLVQPGGSLRLSCTASGFTFSKYWMTWVRQAPGRGLEWVANIKEDGNEKYFLDSVKGRFTISRDNAKDLLFLQMNSLRGEDTAVYYCVRDRGIEVAGPFDYWGQGTLVTVSS
VL: DIQMTQSPSTLSASVGDRVTVTCRASQTIINWLAWYQQKPGKAPKLLISKASSLESGVPSRFSGSGSGTEFTLTISSLQPDDFATYYCQQYNRYWTFGQGTMVEIK
Take B4: the values for the Kd in [4], in [5] and in assay [6] were 5.65 nM, 1.58 nM and 0.137 nM, respectively. For the same molecule, the T1/2 came out at 9.9 min in [4], 69.5 min in [5] and 58.4 min in [6]. Moreover, the Percent Blocking of Ang-2FD Binding to Tie-2 in assay [7] was 83.9%; in assay [8], 97.1%; in assay [9], 98.5%.

B5: H1H728N (antibody, V domains shown)
VH: EVQLVESGGDLVQPGGSLRLSCTASGFTFSKYWMTWVRQAPGRGLEWVANIKEDGNEKYFLDSVKGRFTISRDNAKDLLFLQMNSLRGEDTAVYYCVRDRGIEVAGPFDYWGQGTLVTVSS
VL: DIQMTQSPSTLSASVGDRVTVTCRASQTIINWLAWYQQKPGKAPKLLISKASSLESGVPSRFSGSGSGTEFTLTISSLQPDDFATYYCQQYNRYWTFGQGTMVEIK
As for B5, the Kd in assay [1] was found to be 5.76 nM; in assay [2], 2 nM; in assay [3], 0.162 nM. For the same molecule, the T1/2 in assay [1] is 20 min; in [2], 77 min; in assay [3], 81 min.

B6: H2M730N (antibody, V domains shown)
VH: EVQLVESGGGLVQPGGSLRLSCAASGFAFRSYWMTWVRQAPGKGLEWVANIQQDGNDKYYVDSVKGRFTISRDNAKNSLYLQMNSLRAEDTAVYYCARDTGIAEAGPFDYWGQGTLVTVSS
VL: DIQMTQSPSTLSASVGDRVSITCRASQTIISWLAWYQQKPGKAPRLLIYKASSLESGVPSRFSGSGSGTEFTLTINSLQPDDFATYYCQQYNRYWTFGQGTKVEIK
Consider B6, for which the equilibrium dissociation constant (Kd) in assay [5] was determined as 0.842 nM; in [6] it was 0.21 nM. The values for the T1/2 in [5] and in assay [6] were 36.6 min and 47 min, respectively. Also, the results for the Percent Blocking of Ang-2FD Binding to Tie-2 in assay [7], in [8] and in [9] were 55%, 97.3% and 98.9%, respectively.

B7: H1H730N (antibody, V domains shown)
VH: EVQLVESGGGLVQPGGSLRLSCAASGFAFRSYWMTWVRQAPGKGLEWVANIQQDGNDKYYVDSVKGRFTISRDNAKNSLYLQMNSLRAEDTAVYYCARDTGIAEAGPFDYWGQGTLVTVSS
VL: DIQMTQSPSTLSASVGDRVSITCRASQTIISWLAWYQQKPGKAPRLLIYKASSLESGVPSRFSGSGSGTEFTLTINSLQPDDFATYYCQQYNRYWTFGQGTKVEIK
B7: the values for the Kd in assay [1], in assay [2] and in assay [3] were 0.0971 nM, 3.4 nM and 0.234 nM, respectively. The T1/2 in assay [1] worked out at 90 min; in [2] it was 87 min; in [3], 62 min.

B8: H1M724N (antibody, V domains shown)
VH: QVQLVESGGGVVQPGRSLRLSCAASGFTLSNYGMHWVRQAPGKGLEWVAVIWHDGSNTYYADSVKGRFTISRDNSKNTLYLQMNSLRAEDTAVYYCTREGLDFWSGYYPNWFDPWGQGTLVTVSS
VL: DIQMTQSPSSLSASVGDRVTITCRASQGIRNDLGWYQQKPGKAPKRLIYAASNLQGGVPSRFSGSGSGTEFTLTISSLQPEDFAAYYCLQHNIYPLTFGGGTKVEIK
Take B8: the Kd in [4] was 0.694 nM; in assay [5] it was 0.73 nM; in assay [6], 0.179 nM. Further, the T1/2 in [4] worked out at 16 min; in assay [5] it was 25.7 min; in assay [6], 42.7 min. Moreover, the Percent Blocking of Ang-2FD Binding to Tie-2 in assay [7] was determined as 96.6%; in [8], 95.2%; in assay [9], 99.5%.

B9: H1H732N (antibody, V domains shown)
VH: EVQLVESGGGLVRPGGSLRLSCAASGFTFTNAWMSWVRQAPGKGLEWIGQIKSKTDGGTIDYAAPVKGRFTVSRDDSENTLFLQMNSLKTEDTAVYYCAGNWNYVDFDYWGQGTLVTVSS
VL: DIQMTQSPSSLSASVGDRVTITCRASQDIRNDLGWYQQKPGKAPKRLIYAASSLQGGVPSRFSGSGSGTEFTLTISSLQPEDFATYYCLQHNSYPFTFGPGTKVDIK
For B9, the equilibrium dissociation constant (Kd) in assay [1] was determined as 0.529 nM; in assay [2], 0.439 nM; in [3], 0.386 nM. Also, the T1/2 in assay [1] is 51 min; in assay [2] it was 118 min; in assay [3] it was 57 min.

B10: H1M732N (antibody, V domains shown)
VH: EVQLVESGGGLVRPGGSLRLSCAASGFTFTNAWMSWVRQAPGKGLEWIGQIKSKTDGGTIDYAAPVKGRFTVSRDDSENTLFLQMNSLKTEDTAVYYCAGNWNYVDFDYWGQGTLVTVSS
VL: DIQMTQSPSSLSASVGDRVTITCRASQDIRNDLGWYQQKPGKAPKRLIYAASSLQGGVPSRFSGSGSGTEFTLTISSLQPEDFATYYCLQHNSYPFTFGPGTKVDIK
Take B10: the Kd in assay [4] stood at 1.7 nM; in assay [5], 7.33 nM; in assay [6] it was 0.484 nM. The T1/2 in assay [4] worked out at 21.4 min; in [5], 24.1 min; in assay [6], 35.5 min. Besides, the Percent Blocking of Ang-2FD Binding to Tie-2 in assay [7] was 90.9%; in [8] it was 95.8%; in assay [9], 97.7%.

B11: H1H750N (antibody, V domains shown)
VH: QVKLVESGGGVVQPGRSLRVSCAASGFTFSSYGMHWVRQAPGKGLEWLAIIWYDGDNKYYSDSVKGRFTISRDNSKNTLYLQMNSLRAEDTAEYYCVRDASIASRFLDYWGQGTLVTVSS
VL: DIQMTQSPSSLSASIGDRVTITCRATQDINNYLAWFQQKPGKAPKSLIYATSNLQSGVPSKFSGSGSGTDYTLTISSLQPEDFSTYYCQQYHSYPLTFGGGTKVEIK
Turning to B11, the Kd worked out at 0.218 nM in [1], 0.199 nM in [2] and 0.164 nM in assay [3]. Further, the values for the T1/2 in assay [1], in [2] and in assay [3] were 121 min, 244 min and 127 min, respectively.

B12: H2M750N (antibody, V domains shown)
VH: QVKLVESGGGVVQPGRSLRVSCAASGFTFSSYGMHWVRQAPGKGLEWLAIIWYDGDNKYYSDSVKGRFTISRDNSKNTLYLQMNSLRAEDTAEYYCVRDASIASRFLDYWGQGTLVTVSS
VL: DIQMTQSPSSLSASIGDRVTITCRATQDINNYLAWFQQKPGKAPKSLIYATSNLQSGVPSKFSGSGSGTDYTLTISSLQPEDFSTYYCQQYHSYPLTFGGGTKVEIK
In the case of B12, the results for the dissociation constant (Kd) in assay [5] and in assay [6] were 1.47 nM and 0.362 nM, respectively. Besides, the T1/2 came to 23 min in [5] and 32.2 min in assay [6]. Also, the Percent Blocking of Ang-2FD Binding to Tie-2 in assay [7] was 53.7%; in [8], 97.4%; in assay [9], 99.4%.
